This note sets out measurements from US20210063414A1, “METHODS FOR PREVENTING AND/OR TREATING BONE LOSS CONDITIONS BY MODULATING IRISIN” (Dana-Farber Cancer Institute, Inc., priority 2018, published 2021).

Experiment [1] concerns the target T1, MLO-Y4 cell surface proteins (Mus musculus, UniProt P16460).
T1 construct: endogenous in cells; host or cells: MLO-Y4
T1 sequence (P16460 1-412): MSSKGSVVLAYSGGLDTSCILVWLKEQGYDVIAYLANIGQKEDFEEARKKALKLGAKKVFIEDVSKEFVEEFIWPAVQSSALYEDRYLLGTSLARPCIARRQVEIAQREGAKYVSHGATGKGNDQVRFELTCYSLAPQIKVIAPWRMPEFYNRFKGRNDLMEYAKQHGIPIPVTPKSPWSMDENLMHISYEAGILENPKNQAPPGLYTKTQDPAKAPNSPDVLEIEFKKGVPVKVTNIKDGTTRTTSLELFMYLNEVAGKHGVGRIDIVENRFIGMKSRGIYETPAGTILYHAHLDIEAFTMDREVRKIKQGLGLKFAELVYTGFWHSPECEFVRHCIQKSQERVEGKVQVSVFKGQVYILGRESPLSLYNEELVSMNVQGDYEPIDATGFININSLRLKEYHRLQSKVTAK
The experiment can be described thus: Crosslinking/co-immunoprecipitation/mass spectrometry (TMT quantitative proteomics) to identify irisin receptors. The experiment is classed as binding. The settings on record: co-precipitated protein Ass1 (ASSY_MOUSE). The method in brief: (§1)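 Relative protein abundance came from 6-plex TMT MS3 quantitation on an Orbitrap Fusion Lumos, after in-gel trypsin digestion of Coomassie-stained SDS-PAGE lanes. Input was a Ni-NTA pulldown (250 mM imidazole elution) of lysates from murine MLO-Y4 cells. These cells were treated on ice with His-tagged irisin or adipsin (10 nM, 20 min) in serum-free medium, then crosslinked with 1.5 mM DTSSP for 30 min.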

For experiment [2], the target named is T2, MLO-Y4 cell surface proteins (Mus musculus, UniProt P52825).
T2 construct: endogenous in cells; host or cells: MLO-Y4
T2 sequence (P52825 26-658): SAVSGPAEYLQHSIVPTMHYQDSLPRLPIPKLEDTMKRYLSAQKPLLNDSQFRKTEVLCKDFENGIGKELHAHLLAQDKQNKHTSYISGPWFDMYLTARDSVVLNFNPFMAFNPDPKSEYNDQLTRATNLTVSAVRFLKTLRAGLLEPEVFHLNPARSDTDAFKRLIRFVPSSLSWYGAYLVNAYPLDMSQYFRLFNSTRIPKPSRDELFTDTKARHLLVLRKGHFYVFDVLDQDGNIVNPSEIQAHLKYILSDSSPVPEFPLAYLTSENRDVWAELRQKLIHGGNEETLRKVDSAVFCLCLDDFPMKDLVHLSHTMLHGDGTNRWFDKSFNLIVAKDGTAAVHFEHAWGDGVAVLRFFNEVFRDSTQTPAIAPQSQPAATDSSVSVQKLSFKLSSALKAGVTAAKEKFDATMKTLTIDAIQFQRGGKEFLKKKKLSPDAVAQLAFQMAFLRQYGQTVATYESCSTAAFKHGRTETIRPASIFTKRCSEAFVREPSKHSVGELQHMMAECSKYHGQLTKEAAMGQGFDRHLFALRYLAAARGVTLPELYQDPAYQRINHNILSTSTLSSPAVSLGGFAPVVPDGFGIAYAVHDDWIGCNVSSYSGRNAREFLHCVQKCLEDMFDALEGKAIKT
The description is as above. Format: binding. The note with it: co-precipitated protein Cpt2 (CPT2_MOUSE). A digest of the protocol: as §1

B1: irisin: secreted cleaved form of FNDC5; recombinant human/mouse irisin with C-terminal his tag produced in HEK293 cells (protein)
chain: DSPSAPVNVTVRHLKANSAVVSWDVLEDEVVIGFAISQQKKDVRMLRFIQEVNTTTRSCALWDLEEDTEYIVHVQAISIQGQSPASEPVLFKTPREAEKMASKNKDEVTMKE
modifications: left off: small tags and cut ends
notes: secreted cleaved form of FNDC5; recombinant human/mouse irisin with C-terminal his tag produced in HEK293 cells
Take B1: in experiment [1], the TMT signal-to-noise ratio was found to be 3.2933 and the “irisin/adipsin TMT signal-to-noise ratio” value was found to be 0.012. In experiment [2], the TMT signal-to-noise ratio amounted to 96.8301 and the “irisin/adipsin TMT signal-to-noise ratio” value is on record as 0.545.
